Substrate in series [1]: OC[C@H]1O[C@H](O[C@H]2[C@H](O)[C@@H](O)[C@@H](O[C@H]3[C@H](O)[C@@H](O)C(O)O[C@@H]3CO)O[C@@H]2CO)[C@H](O)[C@@H](O)[C@@H]1O
Put plainly: purified protein, by the assay type. The conditions noted are these: other: 30 minutes, 100 ng of enzyme; starch supplied by Avebe, 8100 Da.

Substrate in series [2]: OC[C@H]1O[C@H](O[C@H]2[C@H](O)[C@@H](O)[C@@H](O[C@H]3[C@H](O)[C@@H](O)[C@@H](O[C@H]4[C@H](O)[C@@H](O)[C@@H](O[C@H]5[C@H](O)[C@@H](O)[C@@H](O[C@H]6[C@H](O)[C@@H](O)[C@@H](O[C@H]7[C@H](O)[C@@H](O)C(O)O[C@@H]7CO)O[C@@H]6CO)O[C@@H]5CO)O[C@@H]4CO)O[C@@H]3CO)O[C@@H]2CO)[C@H](O)[C@@H](O)[C@@H]1O
Put plainly: Kinetic constants of X. dendrorhous α-glucosidase glycosylhydrolase activity. Format: biochemical, Xanthophyllomyces dendrorhous. The conditions noted are these: other: 30 minutes, 100 ng of enzyme; starch supplied by Avebe, 8100 Da.

B1: X. dendrorhous α-glucosidase (purified enzyme) (Phaffia rhodozyma) (protein)
chain: SSPSSFQGPSELLSNQKRYSKRDNTGSYSLNTTACGGYSVSSVDSTGNGLQAHLSLNGEPCRAFGVDYTDLLVDVEYQTQERIRVHIYDADKIEFQVPENIFPKPQSDNGLDLNQTDLVFNHQENPFAFWITRRNASDDETPIFDTRPSSKTSVDYPIEPPYGGVEKVNSSTAVPDESGGLVFEAGYLEISSFLPKDANIFGLGEVVATSGFRRNSSATVQTMWARDVGDPENQNMYGDHPIYIETRFNKNGASSSHGVFLLNSEGMDIVLRDEVIEYRPLGGSLDFYFISGPTPIKVIEQYSEISGRSLLHPYWSYGFHLCRWGYDNITQNREIVQSMKDANLPLETFWNDIDWMDTYRNFVPAPNRFEPADYKAFVDELHANNQHYIPIIDAAIGVVTNDTDVYDTFTAGDAANTYIKNPDGSNYIGKVWPGYTVFPDWFQNSTQDWWTEAFINYSQIVEFDGIWIDMNEPSSFCEGSCGSSADLNNITPPFLLPGQPGAVTLIDGTFPEGYNATLWGYSGNLTINGSLTFNSTPPNYGRPDRRSQLSRRVGQGVDVNTPAYEIHNALDKLAISTVSPNATHLNGDIQDIDVHNLFGYMEGIATFNVWNTYKPNKRPFIVSRSTFPGAGTKVAHWLGDNYSTWKYLRYVNQGVLQFQIYGIPMVGADTCGFAGNTDEELCNRWMQLAAFYPFFRNHNIKSALAQEPFRWDSVAEATRNATAIRYALLPYWYTLFYQASSVGTPPIRALFYEFDQEELLSVDAQFLVGRNVLVTGAMYPNITSVEGYLPGGDDEIWRDWYTHEVIKPTSDDGKYDFPAPLGHIPVTIRSGAIFLLHSEPGMTVYDTRESPYSILVSLDKSSEAEGYAFIDDGESFPVTDSREVHLGAAEGKVYGWTSGSYNVGQKLAQVTVLGVKTEPSTVTFNGQAITTGWTYEADLERFVVTGLQGDLNGGWELDWA
In the case of B1, in series [1], the Michaelis-Menten constant (Km) (as a rule, the concentration of substrate that gives half-maximal velocity) was 550 µM; the kcat (usually the maximal rate divided by the concentration of active sites) is 4 s⁻¹; the kcat/Km (in general, the second-order rate constant that governs catalysis at low substrate concentration) was 7270 M⁻¹ s⁻¹. Moreover, in series [2], the Km came out at 860 µM, the kcat turned out to be 5 s⁻¹ and the catalytic efficiency (kcat/Km) stood at 5800 M⁻¹ s⁻¹.

The values above are taken from patent US20090275085A1, “Enzyme for Obtaining Prebiotic Oligosaccharides” (CONSEJO SUPERIOR DE INVESTIGACIONES CIENTIFICAS, priority 2004, published 2009).
